± gives the standard error. For some assays here: Fewer inactive variants are shown than the library holds.
B1: glmS ribozyme (parent)
chain: AUAAAAGCGCCAGAACUACAGAAAUGUAGUUGACGAGGAGGAGGUUUAUCGAAUUUUCGGCGGAUGCCUCCAAA

How the values were obtained:
Conditions in all cases: with glucosamine-6-phosphate
[1] = variants of: B1; assay: kcat; higher = faster cleavage; RNA array
Method in brief: (§1)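 Tiles of sequenced MiSeq chips were imaged over ~14 h at 37 °C. On them, barcoded ribozyme variants had been transcribed in situ by E. coli RNA polymerase and were tracked via a hybridised Cy3 probe while glucosamine-6-phosphate (40 μM to 10 mM) in HEPES/KCl/Mg(OAc)2 buffer flowed in. Per-tile medians, normalised to baseline and to non-cleaving reference variants, were fit to one- or two-exponential decays for kobs, and weighted Michaelis–Menten fits gave kcat and KM.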

[2] = variants of: B1; assay: self-cleavage kobs at 40 uM GlcN6P; higher = faster cleavage; RNA array
Method in brief: as §1

[3] = variants of: B1; assay: self-cleavage kobs at 160 uM GlcN6P; higher = faster cleavage; RNA array
Method in brief: as §1

[4] = variants of: B1; assay: self-cleavage kobs at 640 uM GlcN6P; higher = faster cleavage; RNA array
Method in brief: as §1

[5] = variants of: B1; assay: self-cleavage kobs at 2500 uM GlcN6P; higher = faster cleavage; RNA array
Method in brief: as §1

[6] = variants of: B1; assay: self-cleavage kobs at 10000 uM GlcN6P; higher = faster cleavage; RNA array
Method in brief: as §1

[7] = variants of: B1; assay: KM; higher = weaker cofactor use; RNA array
Method in brief: as §1

## AUAAAAGCGCCAGAACUACAGAAAUGUAGUUGACGAGGAGGAGGUUAAUCGAAUUUUCGGCGGAUGACUCCAAA [U47A C67A]
[1]
  kcat: 0.00576 ± 0.0027 s⁻¹
[2]
  self-cleavage kobs at 40 uM GlcN6P: 0.000186 ± 2.7e-05 s⁻¹
[3]
  self-cleavage kobs at 160 uM GlcN6P: 0.000303 ± 5.4e-05 s⁻¹
[4]
  self-cleavage kobs at 640 uM GlcN6P: 0.0014 ± 0.00021 s⁻¹
[5]
  self-cleavage kobs at 2500 uM GlcN6P: 0.00288 ± 0.00043 s⁻¹
[6]
  self-cleavage kobs at 10000 uM GlcN6P: 0.00568 ± 0.0013 s⁻¹

## AUAAAAGCGCCAGAACUACAGAAAUGUAGUUGUCGAGGAGGAGGUUUAUCGAAUUUUCGGCGGAUGCCUGCAAA [A33U C70G]
[1]
  kcat: 1.5e-05 ± 1.8e-06 s⁻¹

## AUAAAAGCGCCAGAACUACAGAAAUGUAGUUGACGAGGAGGAGGUUUAUCGACUGUUCGGCGGAUGCCUCCAAA [A53C U55G]
[1]
  kcat: 0.00572 ± 0.0016 s⁻¹
[7]
  KM: 1640 ± 730 µM
[2]
  self-cleavage kobs at 40 uM GlcN6P: 0.000162 ± 2.2e-05 s⁻¹
[3]
  self-cleavage kobs at 160 uM GlcN6P: 0.000551 ± 9.1e-05 s⁻¹
[4]
  self-cleavage kobs at 640 uM GlcN6P: 0.00138 ± 0.00025 s⁻¹
[5]
  self-cleavage kobs at 2500 uM GlcN6P: 0.00261 ± 0.00039 s⁻¹
[6]
  self-cleavage kobs at 10000 uM GlcN6P: 0.00667 ± 0.00076 s⁻¹

## AUAAAAGCGCCAGAACUACAGAAAUGUAGUUGACGAGGAGGAGGUUUAUCGGUUUUUCGGCGGAUGCCUCCAAA [A52G A53U]
[1]
  kcat: 0.000266 ± 2.2e-05 s⁻¹
[7]
  KM: 1900 ± 430 µM
[4]
  self-cleavage kobs at 640 uM GlcN6P: 6.4e-05 ± 1.5e-05 s⁻¹
[5]
  self-cleavage kobs at 2500 uM GlcN6P: 0.000176 ± 3.4e-05 s⁻¹
[6]
  self-cleavage kobs at 10000 uM GlcN6P: 0.000219 ± 2.3e-05 s⁻¹

## AUAAAAGCGCCAGAACUACAGAAAUGUAGUUGACGAGGAGGAGGUUUAUCGAAUUUCCGGCGGAUGCCGCCAAA [U57C U69G]
[1]
  kcat: 2.77e-05 ± 6.2e-06 s⁻¹
[3]
  self-cleavage kobs at 160 uM GlcN6P: 3.31e-05 ± 1.4e-05 s⁻¹
[4]
  self-cleavage kobs at 640 uM GlcN6P: 3.38e-05 ± 1.3e-05 s⁻¹

## AUAAAAGCGCCAGAAAUACAGAAAUGUAGUUGACGAGGAGGAGGUGUGUUGAAUUUUCGGCGGAUGACUCCAAA [C16A U46G A48G C50U C67A]
[1]
  kcat: 1.04e-05 ± 4.5e-06 s⁻¹

## AUAAAAGCGCCAGACCUACAGAAAUGUAGUUGACGAGGAGGAGGUUUAUCGUAUUUUCGGCGGAUGCCUCCAAA [A15C A52U]
[1]
  kcat: 0.000104 ± 4.8e-06 s⁻¹
[7]
  KM: 1830 ± 260 µM
[5]
  self-cleavage kobs at 2500 uM GlcN6P: 6.2e-05 ± 1.7e-05 s⁻¹
[6]
  self-cleavage kobs at 10000 uM GlcN6P: 8.65e-05 ± 1.9e-05 s⁻¹

## AUAAAAGCGUCAGAACUACAGAAAUGUAGUUGACGAGUAGGAGGUUUAUCGAAUUUUCGGCGGAUGCCUCCAAA [C10U G38U]
[1]
  kcat: < 1e-05 s⁻¹

## AUAAAAGCGCCAGCACUACAGAAAUGUAGUUGACGAGGAGGAGGUUUAUCGAAUUUUCGGCGGAUGCCUACAAA [A14C C70A]
[1]
  kcat: 0.000106 ± 1.1e-05 s⁻¹
[7]
  KM: 413 ± 170 µM
[3]
  self-cleavage kobs at 160 uM GlcN6P: 4.49e-05 ± 9.3e-06 s⁻¹
[4]
  self-cleavage kobs at 640 uM GlcN6P: 5.59e-05 ± 6.8e-06 s⁻¹
[5]
  self-cleavage kobs at 2500 uM GlcN6P: 9.55e-05 ± 8e-06 s⁻¹
[6]
  self-cleavage kobs at 10000 uM GlcN6P: 0.000102 ± 9.4e-06 s⁻¹

## AUAAAAGCGCCAGAACUACAGAAAUGUAGUUGACGAGGAGGAGGUUUAUCGAAUUUUCGGCGGAUGGCUCCAAA [C67G]
[1]
  kcat: 0.00185 ± 0.00017 s⁻¹
[7]
  KM: 2390 ± 300 µM
[2]
  self-cleavage kobs at 40 uM GlcN6P: 3.28e-05 ± 1e-06 s⁻¹
[3]
  self-cleavage kobs at 160 uM GlcN6P: 0.000109 ± 2.8e-06 s⁻¹
[4]
  self-cleavage kobs at 640 uM GlcN6P: 0.00046 ± 4e-05 s⁻¹
[5]
  self-cleavage kobs at 2500 uM GlcN6P: 0.00108 ± 3.9e-05 s⁻¹
[6]
  self-cleavage kobs at 10000 uM GlcN6P: 0.00145 ± 3.7e-05 s⁻¹
